Experimental findings from patent publication US20230002472A1 (NEURACLE GENETICS, published 2023) are described below.

Sequences and labels used below:
B1: PD-1 variant No. 41 (CKJ 41), S36P/C69S/L114P, displayed on E. coli (receptor)
chain: LDSPDRPWNPPTFSPALLVVTEGDNATFTCSFSNTPESFVLNWYRMSPSNQTDKLAAFPEDRSQPGQDSRFRVTQLPNGRDFHMSVVRARRNDSGTYLCGAISLAPKAQIKESPRAELRVTERRAEVPTAHPSPSPRPAGQFQ
notes: not shown: NlpA signal peptide / inner membrane anchor of the pMopac12-NlpA-FLAG vector; FLAG tag
B2: PD-1 variant JY101, N1S/F13I/L17M/S36P/M46I/C69T/G79R/G100V/L114P/A139L, displayed on E. coli (receptor)
chain: SDSPDRPWNPPTISPAMLVVTEGDNATFTCSFSNTPESFVLNWYRISPSNQTDKLAAFPEDRSQPGQDTRFRVTQLPNRRDFHMSVVRARRNDSGTYLCVAISLAPKAQIKESPRAELRVTERRAEVPTAHPSPSPRPLGQFQ
notes: From the secondary library on CKJ 41T; also called APD1-JY 101; not shown: NlpA signal peptide / inner membrane anchor of the pMopac12-NlpA-FLAG vector; FLAG tag
B3: PD-1_LDSS variant, F13L/N25D/C69S/N92S, displayed on E. coli (receptor)
chain: LDSPDRPWNPPTLSPALLVVTEGDDATFTCSFSNTSESFVLNWYRMSPSNQTDKLAAFPEDRSQPGQDSRFRVTQLPNGRDFHMSVVRARRSDSGTYLCGAISLAPKAQIKESLRAELRVTERRAEVPTAHPSPSPRPAGQFQ
notes: Made by QuikChange PCR on the CKJ 49 vector; not shown: NlpA signal peptide / inner membrane anchor of the pMopac12-NlpA-FLAG vector; FLAG tag
B4: PD-1 variant CKJ 41A, S36P/C69A/L114P, displayed on E. coli (receptor)
chain: LDSPDRPWNPPTFSPALLVVTEGDNATFTCSFSNTPESFVLNWYRMSPSNQTDKLAAFPEDRSQPGQDARFRVTQLPNGRDFHMSVVRARRNDSGTYLCGAISLAPKAQIKESPRAELRVTERRAEVPTAHPSPSPRPAGQFQ
notes: Made by QuikChange PCR on CKJ 41; not shown: NlpA signal peptide / inner membrane anchor of the pMopac12-NlpA-FLAG vector; FLAG tag
B5: PD-1 variant CKJ 41G, S36P/C69G/L114P, displayed on E. coli (receptor)
chain: LDSPDRPWNPPTFSPALLVVTEGDNATFTCSFSNTPESFVLNWYRMSPSNQTDKLAAFPEDRSQPGQDGRFRVTQLPNGRDFHMSVVRARRNDSGTYLCGAISLAPKAQIKESPRAELRVTERRAEVPTAHPSPSPRPAGQFQ
notes: as for B4
B6: PD-1 variant CKJ 41Y, S36P/C69Y/L114P, displayed on E. coli (receptor)
chain: LDSPDRPWNPPTFSPALLVVTEGDNATFTCSFSNTPESFVLNWYRMSPSNQTDKLAAFPEDRSQPGQDYRFRVTQLPNGRDFHMSVVRARRNDSGTYLCGAISLAPKAQIKESPRAELRVTERRAEVPTAHPSPSPRPAGQFQ
notes: as for B4
B7: GPD1-CKJ 49: glycosylated form of CKJ 49 (PD1 CKJ 49-His tag, expressed in HEK293F) (receptor)
chain: LDSPDRPWNPPTLSPALLVVTEGDDATFTCSFSNTSESFVLNWYRMSPSNQTDKLAAFPEDRSQPGQDSRFRVTQLPNGRDFHMSVVRARRSDSGTYLCGAISLAPKAQIKESLRAELRVTERRAEVPTAHPSPSPKPAGQFQ
notes: Soluble, glycosylated, purified on Ni-NTA; coated on the ELISA plate; also called pMaz-PD1 CKJ 49-His tag; not shown: His tag
B8: PD-1 variant No. 44 (CKJ 44), F13I/M46I/N50S/C69Y/V127A, displayed on E. coli (receptor)
chain: LDSPDRPWNPPTISPALLVVTEGDNATFTCSFSNTSESFVLNWYRISPSSQTDKLAAFPEDRSQPGQDYRFRVTQLPNGRDFHMSVVRARRNDSGTYLCGAISLAPKAQIKESLRAELRVTERRAEAPTAHPSPSPRPAGQFQ
notes: as for B1
B9: PD-1 variant No. 67 (CKJ 67), N34T/S36P/C69S/L114P, displayed on E. coli (receptor)
chain: LDSPDRPWNPPTFSPALLVVTEGDNATFTCSFSTTPESFVLNWYRMSPSNQTDKLAAFPEDRSQPGQDSRFRVTQLPNGRDFHMSVVRARRNDSGTYLCGAISLAPKAQIKESPRAELRVTERRAEVPTAHPSPSPRPAGQFQ
notes: as for B1
B10: PD-1 variant No. 46 (CKJ 46), S36P/C69S/L114P/P132L, displayed on E. coli (receptor)
chain: LDSPDRPWNPPTFSPALLVVTEGDNATFTCSFSNTPESFVLNWYRMSPSNQTDKLAAFPEDRSQPGQDSRFRVTQLPNGRDFHMSVVRARRNDSGTYLCGAISLAPKAQIKESPRAELRVTERRAEVPTAHLSPSPRPAGQFQ
notes: as for B1
B11: PD-1 variant No. 78 (CKJ 78), T12S/S36P/C69S/L114P, displayed on E. coli (receptor)
chain: LDSPDRPWNPPSFSPALLVVTEGDNATFTCSFSNTPESFVLNWYRMSPSNQTDKLAAFPEDRSQPGQDSRFRVTQLPNGRDFHMSVVRARRNDSGTYLCGAISLAPKAQIKESPRAELRVTERRAEVPTAHPSPSPRPAGQFQ
notes: as for B1
B12: PD-1 variant CKJ 41T, S36P/C69T/L114P, displayed on E. coli (receptor)
chain: LDSPDRPWNPPTFSPALLVVTEGDNATFTCSFSNTPESFVLNWYRMSPSNQTDKLAAFPEDRSQPGQDTRFRVTQLPNGRDFHMSVVRARRNDSGTYLCGAISLAPKAQIKESPRAELRVTERRAEVPTAHPSPSPRPAGQFQ
notes: also called APD1-CKJ 41T; pMopac12-NIpA-PD-1 CKJ 41T-FLAG; not shown: NlpA signal peptide / inner membrane anchor of the pMopac12-NlpA-FLAG vector; FLAG tag
B13: PD-1 variant No. 56 (CKJ 56), S36P/C69S/N92K/L114P/H131R, displayed on E. coli (receptor)
chain: LDSPDRPWNPPTFSPALLVVTEGDNATFTCSFSNTPESFVLNWYRMSPSNQTDKLAAFPEDRSQPGQDSRFRVTQLPNGRDFHMSVVRARRKDSGTYLCGAISLAPKAQIKESPRAELRVTERRAEVPTARPSPSPRPAGQFQ
notes: as for B1
B14: PD-1 variant No. 66 (CKJ 66), N9D/N25D/C69S/N92S/A101V, displayed on E. coli (receptor)
chain: LDSPDRPWDPPTFSPALLVVTEGDDATFTCSFSNTSESFVLNWYRMSPSNQTDKLAAFPEDRSQPGQDSRFRVTQLPNGRDFHMSVVRARRSDSGTYLCGVISLAPKAQIKESLRAELRVTERRAEVPTAHPSPSPRPAGQFQ
notes: as for B1
B15: PD-1 variant No. 50 (CKJ 50), F13L/N25D/C69S/R88K/N92S/A125S, displayed on E. coli (receptor)
chain: LDSPDRPWNPPTLSPALLVVTEGDDATFTCSFSNTSESFVLNWYRMSPSNQTDKLAAFPEDRSQPGQDSRFRVTQLPNGRDFHMSVVKARRSDSGTYLCGAISLAPKAQIKESLRAELRVTERRSEVPTAHPSPSPRPAGQFQ
notes: as for B1
B16: PD-1 variant No. 49 (CKJ 49), F13L/N25D/C69S/N92S/R137K, displayed on E. coli (receptor)
chain: LDSPDRPWNPPTLSPALLVVTEGDDATFTCSFSNTSESFVLNWYRMSPSNQTDKLAAFPEDRSQPGQDSRFRVTQLPNGRDFHMSVVRARRSDSGTYLCGAISLAPKAQIKESLRAELRVTERRAEVPTAHPSPSPKPAGQFQ
notes: as for B1
B17: PD-1 variant No. 55 (CKJ 55), N25D/C69S/N92S/A101V, displayed on E. coli (receptor)
chain: LDSPDRPWNPPTFSPALLVVTEGDDATFTCSFSNTSESFVLNWYRMSPSNQTDKLAAFPEDRSQPGQDSRFRVTQLPNGRDFHMSVVRARRSDSGTYLCGVISLAPKAQIKESLRAELRVTERRAEVPTAHPSPSPRPAGQFQ
notes: as for B1
B18: PD-1 variant No. 45 (CKJ 45), S36P/C69S/K107N/L114P/F142L, displayed on E. coli (receptor)
chain: LDSPDRPWNPPTFSPALLVVTEGDNATFTCSFSNTPESFVLNWYRMSPSNQTDKLAAFPEDRSQPGQDSRFRVTQLPNGRDFHMSVVRARRNDSGTYLCGAISLAPNAQIKESPRAELRVTERRAEVPTAHPSPSPRPAGQLQ
notes: as for B1
B19: PD-1 variant No. 52 (CKJ 52), F13I/M46I/C69Y, displayed on E. coli (receptor)
chain: LDSPDRPWNPPTISPALLVVTEGDNATFTCSFSNTSESFVLNWYRISPSNQTDKLAAFPEDRSQPGQDYRFRVTQLPNGRDFHMSVVRARRNDSGTYLCGAISLAPKAQIKESLRAELRVTERRAEVPTAHPSPSPRPAGQFQ
notes: as for B1

For one assay, the target named is T1, tetrameric human PD-L1 (PD-L1-streptavidin-His tag) (human, UniProt Q9NZQ7 19-238, Alexa-488 label (labelled form used in Example 3 ELISA and in all flow cytometry)).
T1 construct: range 19-238; Expressed in HEK293F, purified on Ni-NTA; both are kept as one molecule; also called PD-L1 tetramer; tetrameric PD-L1-streptavidin; not shown: GS linker between PD-L1 and streptavidin; streptavidin fused at the C-terminal of PD-L1 to induce tetramerization; His tag
T1 sequence (Q9NZQ7 19-238): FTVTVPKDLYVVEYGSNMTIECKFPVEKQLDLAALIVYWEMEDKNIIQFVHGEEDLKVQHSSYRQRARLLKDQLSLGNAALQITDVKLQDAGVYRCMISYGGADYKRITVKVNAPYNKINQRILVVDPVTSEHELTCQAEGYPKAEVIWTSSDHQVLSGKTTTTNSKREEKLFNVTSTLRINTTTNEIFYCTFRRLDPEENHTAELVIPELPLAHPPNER
Put plainly: flow cytometry of E. coli spheroplasts with tetrameric PD-L1-Alexa488. (In general: A flow cytometer gives signals particle by particle.)
Take B1: the binding result is recorded as “binds”.
On the same count and under the same terms, to B2 belongs “binds”; to B3, “binds”.
Still for that read-out and setting: to B4 belongs “binds”; to B5, “binds”.
On the same count and under the same terms, to B6 belongs “binds”.

Another assay deals with T1, tetrameric human PD-L1 …. Put plainly: ELISA, PD-1 protein coated at 200 ng/well, PD-L1 tetramer, anti-streptavidin-HRP. In general terms: In an ELISA, binding on a coated surface is turned into a signal by an enzyme label.
On to B7, for which the binding result is listed as “binds”.

Another assay concerns the target T1, tetrameric human PD-L1 …. Put plainly: flow cytometry of E. coli spheroplasts, 12.5 nM tetrameric PD-L1-Alexa488.
As to B8, the binding result is recorded as “binds”.
Turning to B9, the binding result was “binds”.
On the same count and under the same terms, to B10 belongs “binds”.
On the same count and under the same terms, to B11 belongs “binds”; to B12, “binds”.
Same read-out and setting: to B13 belongs “binds”; to B14, “binds”; to B15, “binds”.
Consider B16, for which the binding result is listed as “binds”.
On the same count and under the same terms, to B17 belongs “binds”; to B18, “binds”; to B19, “binds”.
